The test concerns the target MADD with deletion of exon 30 (dex30), MAC-tagged (human) (UniProt Q8WXG6). Kind of test: affinity purification with mass spectrometry + proximity labelling; AP-MS and BioID with MAC-tagged MADD (wild-type or dex30) in Flp-In T-REx 293 cells; the text does not tell which of the two approaches gave this result (Figure 7).

Take “ubiquitin-specific peptidase 9 X-linked (from UniProt Q93008 1-2554) (natural protein)”: the fold change of relative abundance against wild-type MADD came to 24 fold.

These data come from article PMC11141940.
